# From the FLAb antibody collection (doi:10.7554/elife.23156)
# B1: scFv; the commonest letter at each place (parent)
# chain 1: EVKLDETGGGLVQPGRPMKLSCVASGFTFSDYWMNWVRQSPEKGLEWVAQIRNKPYNYETYYSDSVKGRFTISRDDSKSSVYLQMNNLRVEDMGIYYCTGSYYGMDYWGQGTSVTVS
# chain 2: DVVMTQTPLSLPVSLGDQASISCRSSQSLVHSNGNTYLRWYLQKPGQSPKVLIYKVSNRFSGVPDRFSGSGSGTDFTLKISRVEAEDLGVYFCSQSTHVPWTFGGGTKLEIK
# How the values were obtained:
# [1] = variants of: B1; assay: Kd (Tite-Seq); conditions: with fluorescein; format: scFv 4-4-20, heavy + light
# [2] = variants of: B1; assay: yeast surface expression (ratio to wild type); higher = more expressed; conditions: format: scFv 4-4-20, heavy + light
Kd [1],Variant,yeast surface expression [2]
≥ 10 µM,chain 1 Y32E M34I,0.733
≥ 10 µM,chain 1 S101C G104N G109R,0.263
≥ 10 µM,chain 1 N35K V37S,0.732
≥ 10 µM,chain 1 G100F S101T G104Y,0.437
≥ 10 µM,chain 1 W33E N35R,0.588
≥ 10 µM,chain 1 G104A M105E,0.648
≥ 10 µM,chain 1 G100P S101T,0.486
≥ 10 µM,chain 1 F29D N35F W36G,0.644
0.00279 µM,chain 1 D31H M34Y,0.671
0.0132 µM,chain 1 T28R Y32G,0.959
≥ 10 µM,chain 1 Y103H G109M,0.304
0.195 µM,chain 1 F29C,0.885
≥ 10 µM,chain 1 G100Q G109C,0.226
≥ 10 µM,chain 1 N35R,0.534
0.00708 µM,chain 1 T28S S30I,0.741
7.72 µM,chain 1 Y32R W36Y,0.635
0.00708 µM,chain 1 M34C V37I,0.76
≥ 10 µM,chain 1 G100S S101D,0.892
0.0252 µM,chain 1 Y102R,1.06
≥ 10 µM,chain 1 Y102E,0.889
0.004 µM,chain 1 Y102H,1.17
≥ 10 µM,chain 1 M34N N35V,0.505
≥ 10 µM,chain 1 G104C M105I,0.349
≥ 10 µM,chain 1 S30N W33M,0.879

Kd [1],Variant,yeast surface expression [2]
0.712 µM,chain 1 M105K Y107T,0.559
≥ 10 µM,chain 1 Y107C,0.592
≥ 10 µM,chain 1 W36M V37S,0.415
≥ 10 µM,chain 1 Y32S W33F,0.984
≥ 10 µM,chain 1 D31S Y32W,0.83
0.018 µM,chain 1 D31S Y32F,0.876
≥ 10 µM,chain 1 M105T G109L,0.188
≥ 10 µM,chain 1 N35P W36T,0.338
0.0592 µM,chain 1 D31Y V37Q,1.38
≥ 10 µM,chain 1 N35G V37K,0.46
≥ 10 µM,chain 1 G100C W108G,0.401
≥ 10 µM,chain 1 W33K W36Y,0.396
≥ 10 µM,chain 1 G100Q D106I,0.184
≥ 10 µM,chain 1 D31A N35T V37S,0.281
≥ 10 µM,chain 1 Y103S D106K,0.311
≥ 10 µM,chain 1 W33T M34W,0.967
0.00146 µM,chain 1 S30Y,0.759
0.00122 µM,chain 1 S30N,0.889
0.00067 µM,chain 1 S30G,1.12
≥ 10 µM,chain 1 G100W Y107Q,0.323
0.00194 µM,chain 1 D31H Y32F,0.801
≥ 10 µM,chain 1 Y107M G109K,0.42
≥ 10 µM,chain 1 G104N W108M G109E,0.217
≥ 10 µM,chain 1 G100I W108R,0.781

Kd [1],Variant,yeast surface expression [2]
≥ 10 µM,chain 1 S101W Y107W,0.386
≥ 10 µM,chain 1 S30N N35E,0.697
≥ 10 µM,chain 1 Y103H G104F,0.477
≥ 10 µM,chain 1 T28P W36P,0.295
≥ 10 µM,chain 1 M105F Y107S G109S,0.81
0.00746 µM,chain 1 Y103M W108A,0.484
≥ 10 µM,chain 1 G100Q,0.476
≥ 10 µM,chain 1 G100W,0.491
≥ 10 µM,chain 1 Y32S N35E V37Q,0.677
≥ 10 µM,chain 1 Y102C G104H,0.609
6.61 µM,chain 1 D106A Y107I,0.646
≥ 10 µM,chain 1 T28M D31I W33Y,0.462
0.000763 µM,chain 1 T28Q,1.06
0.0017 µM,chain 1 T28E,1.04
0.000743 µM,chain 1 T28P,0.989
0.00179 µM,chain 1 T28C,0.965
0.00138 µM,chain 1 T28R,0.917
≥ 10 µM,chain 1 G109F,0.305
≥ 10 µM,chain 1 D31A W33L,0.534
0.00226 µM,chain 1 Y102V Y107F,0.877
≥ 10 µM,chain 1 F29T W36D,0.484
≥ 10 µM,chain 1 T28R D31L W33I,0.441
≥ 10 µM,chain 1 T28G D31C,0.472
≥ 10 µM,chain 1 G100Q G104E,0.38

Kd [1],Variant,yeast surface expression [2]
≥ 10 µM,chain 1 W36P,0.871
≥ 10 µM,chain 1 W36N,0.978
≥ 10 µM,chain 1 W36K,0.794
≥ 10 µM,chain 1 W36T,0.497
0.00532 µM,chain 1 W36Y,0.923
≥ 10 µM,chain 1 T28R W33G,0.684
≥ 10 µM,chain 1 G100V Y107H,0.772
≥ 10 µM,chain 1 Y32M W33V,0.941
≥ 10 µM,chain 1 G104L Y107E,0.499
≥ 10 µM,chain 1 F29N D31C M34N,0.701
3.74 µM,chain 1 Y32L W36Y,0.682
≥ 10 µM,chain 1 Y32L W36F,0.728
≥ 10 µM,chain 1 G100W G104I,0.359
≤ 0.000316 µM,chain 1 Y107W W108T,0.647
≥ 10 µM,chain 1 G100T M105G,0.878
≥ 10 µM,chain 1 Y103D W108R,0.524
≥ 10 µM,chain 1 M105Q G109M,0.216
≥ 10 µM,chain 1 M105K G109W,0.118
9.5 µM,chain 1 D31L V37K,0.686
≥ 10 µM,chain 1 Y102Q G104L W108S,0.348
6.96 µM,chain 1 Y102K Y107K,0.846
≥ 10 µM,chain 1 G100T D106A,0.704
≥ 10 µM,chain 1 G104T G109D,0.235
≥ 10 µM,chain 1 D106I W108S,0.397

Kd [1],Variant,yeast surface expression [2]
9.5 µM,chain 1 F29C S30T N35E,0.668
≥ 10 µM,chain 1 Y32E V37Y,0.806
≥ 10 µM,chain 1 M34I W36S,0.556
≥ 10 µM,chain 1 G100A G104L D106M,0.244
≥ 10 µM,chain 1 W108N G109N,0.335
≥ 10 µM,chain 1 T28N F29R,0.996
≥ 10 µM,chain 1 F29G D31E,0.955
≥ 10 µM,chain 1 G100Y S101P,0.251
≥ 10 µM,chain 1 M34E,0.617
0.02 µM,chain 1 S30T W36M,0.705
≥ 10 µM,chain 1 M105A W108Q,0.38
≥ 10 µM,chain 1 Y103Q M105G,0.906
≥ 10 µM,chain 1 F29I D31E Y32T,0.84
≥ 10 µM,chain 1 S101W M105I,0.442
0.972 µM,chain 1 D31V Y32L,0.584
≥ 10 µM,chain 1 D31V Y32P,0.759
≥ 10 µM,chain 1 Y32P,0.908
≥ 10 µM,chain 1 S101K Y103R,0.714
≥ 10 µM,chain 1 S101K Y103S,0.461
≥ 10 µM,chain 1 S30R Y32Q,1.13
